Measurements published in paper PMC9709061, “HSP90-CDC37-PP5 forms a structural platform for kinase dephosphorylation” (Nature Communications, 2022).

Legend:
[1] = target: T1, BRAF^V600E (human, UniProt P15056 1-766, V600E, phosphorylated as purified: Ser151, Ser339, Ser365, Thr401, Ser429, Ser432, Ser446, Ser614, Ser675, Ser729, Ser750, Thr753 (mass spectrometry; pSer729 also by western blot)); test: cryo-EM structure; HSP90–CDC37–BRAF^V600E complex incubated with PP5 D274N, purified by SEC, cross-linked with 1 mM BS3; one sample gave three classes: HCK (3.4 Å), HCK-P open (4.2 Å), HCK-P closed (3.9 Å); PP5 modelled by rigid-body docking; conditions: both partners purified
T1 construct: human BRAF, full length (84 kDa), oncogenic V600E mutant; A 3C site lies between protein and tag; no cleavage step is described; also called kinase client; not shown: 2xStrep, N-terminal, kept
T1 sequence (P15056 whole entry V600E): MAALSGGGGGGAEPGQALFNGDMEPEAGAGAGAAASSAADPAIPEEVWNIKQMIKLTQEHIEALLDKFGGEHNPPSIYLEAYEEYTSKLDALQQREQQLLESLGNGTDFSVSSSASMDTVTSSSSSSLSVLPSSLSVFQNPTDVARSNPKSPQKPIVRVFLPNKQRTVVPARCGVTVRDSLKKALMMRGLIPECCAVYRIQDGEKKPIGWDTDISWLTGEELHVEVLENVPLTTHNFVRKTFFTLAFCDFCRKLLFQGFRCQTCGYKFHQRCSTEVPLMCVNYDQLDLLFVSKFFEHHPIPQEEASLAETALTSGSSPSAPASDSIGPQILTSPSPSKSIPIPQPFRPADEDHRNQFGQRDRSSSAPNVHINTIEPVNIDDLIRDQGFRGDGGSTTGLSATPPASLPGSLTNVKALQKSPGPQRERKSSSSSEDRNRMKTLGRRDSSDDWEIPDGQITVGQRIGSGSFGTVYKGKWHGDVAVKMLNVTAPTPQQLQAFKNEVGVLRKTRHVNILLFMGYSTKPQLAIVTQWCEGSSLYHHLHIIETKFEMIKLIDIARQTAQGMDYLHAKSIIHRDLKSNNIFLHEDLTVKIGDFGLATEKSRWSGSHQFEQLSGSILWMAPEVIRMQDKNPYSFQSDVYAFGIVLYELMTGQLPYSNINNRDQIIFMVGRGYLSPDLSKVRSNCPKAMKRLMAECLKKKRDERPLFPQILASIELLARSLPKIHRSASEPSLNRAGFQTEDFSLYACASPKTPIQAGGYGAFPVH

[2] = target: T2, HSP90β (human, UniProt P08238 1-724, phosphorylation at Ser226 and Ser255 found by mass spectrometry); test: as above; conditions: both partners purified
T2 construct: human HSP90β, full length; A 3C protease site lies between protein and tag; no cleavage step is described; Captured on Talon resin during the co-purification; source: co-purified (Talon, Streptactin, Superdex S200); not shown: His8, N-terminal, kept
T2 sequence (P08238 whole entry): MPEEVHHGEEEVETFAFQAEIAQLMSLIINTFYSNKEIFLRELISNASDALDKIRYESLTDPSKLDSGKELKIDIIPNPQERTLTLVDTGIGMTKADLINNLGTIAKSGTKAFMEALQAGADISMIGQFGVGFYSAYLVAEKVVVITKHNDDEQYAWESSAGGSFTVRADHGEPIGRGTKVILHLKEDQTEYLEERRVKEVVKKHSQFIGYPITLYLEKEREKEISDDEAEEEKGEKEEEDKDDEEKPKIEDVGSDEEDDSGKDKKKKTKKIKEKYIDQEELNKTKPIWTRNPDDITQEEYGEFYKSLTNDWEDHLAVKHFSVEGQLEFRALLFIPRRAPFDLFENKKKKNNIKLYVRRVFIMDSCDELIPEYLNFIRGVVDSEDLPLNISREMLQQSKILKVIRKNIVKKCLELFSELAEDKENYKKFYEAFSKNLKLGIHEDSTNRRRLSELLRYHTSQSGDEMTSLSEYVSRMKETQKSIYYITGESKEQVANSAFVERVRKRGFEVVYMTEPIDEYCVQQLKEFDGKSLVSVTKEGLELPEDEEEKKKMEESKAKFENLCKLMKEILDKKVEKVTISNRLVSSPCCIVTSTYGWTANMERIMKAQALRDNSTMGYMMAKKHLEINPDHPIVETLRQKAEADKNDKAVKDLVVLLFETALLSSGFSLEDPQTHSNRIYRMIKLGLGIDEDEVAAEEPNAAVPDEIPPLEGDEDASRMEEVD

B1: PP5 D274N (enzyme, human, UniProt P53041 16-499, looked up)
chain: RDEPPADGALKRAEELKTQANDYFKAKDYENAIKFYSQAIELNPSNAIYYGNRSLAYLRTECYGYALGDATRAIELDKKYIKGYYRRAASNMALGKFRAALRDYETVVKVKPHDKDAKMKYQECNKIVKQKAFERAIAGDEHKRSVVDSLDIESMTIEDEYSGPKLEDGKVTISFMKELMQWYKDQKKLHRKCAYQILVQVKEVLSKLSTLVETTLKETEKITVCGDTHGQFYDLLNIFELNGLPSETNPYIFNGDFVNRGSFSVEVILTLFGFKLLYPDHFHLLRGNHETDNMNQIYGFEGEVKAKYTAQMYELFSEVFEWLPLAQCINGKVLIMHGGLFSEDGVTLDDIRKIERNRQPPDSGPMCDLLWSDPQPQNGRSISKRGVSCQFGPDVTKAFLEENNLDYIIRSHEVKAEGYEVAHGGRCVTVFSAPNYCDQMGNKASYIHLQGSDLRPQFHQFTAVPHPNVKPMAYANTLLQLGMM
notes: human PP5 (serine/threonine protein phosphatase 5), residues 16-499, D274N; also called catalytically dead PP5
binding result [1]: binds | binding result [2]: binds
